From publication PMC13138739, “Broadly conserved protective epitopes on the lyme disease vaccine antigen, OspA” (PLOS Pathogens, 2026)
Substitutions are numbered along the chain they refer to.

B1: 221-11, recombinant human monoclonal IgG1 (antibody, V domains shown)
VH: EVQLVQSGAEVKKPGESLKISCQSSGYRFTIYWIGWVRQMPGKGLEWMGIIWPGDSDTRYSPSFQGQVTISADKSISTAYLQWSSLKASDTAMYYCVRGIGRYSNWFLDYWGQGTLVTVSS
VL: AIQLTQSPSSLSASVGDRVTITCRASQGFSSALAWYQQKPGKAPKLLIYDASSLESGVPSRFSGSGSGTDFTLTISSLQPEDFATYYCQQFNSYPLTFGGGTKVEIK
notes: source: Expi293 cells, transiently transfected with VH and VL plasmids, purified (Protein A)
B2: 227-1, recombinant human monoclonal IgG1 (antibody, V domains shown)
VH: EVQLVQSGAEVKMPGESLKISCEVSGYSFTSYWIGWVRQMPGKGLEWMGIIYPGDSDTRYSPSFQGQVTISADKSISTAYLQWSSLKASDTAMYYCTRSISRSGPGFSLSWFFDYWGQGTLVTVSS
VL: B1 VL with F29I, S31N, S56R, S67F, T85I, S93G, Y94F, L96N, G100Q, K103R
notes: as for B1
B3: 227-2, recombinant human monoclonal IgG1 (antibody, V domains shown)
VH: B2 VH with L4V, M13K, E23K, V24G, T97V, F107Y, S108I, T120S
VL: B1 VL with F29I, S31N, S56R, S67F, T85I, S93G, Y94F, L96N, G100Q, K103R
notes: as for B1
B4: 221-7, recombinant human monoclonal IgG1 (antibody, V domains shown)
VH: EVQLVQSGSEVKKPGESLKISCQVSGYSFTSYWIGWVRQMPGKGLERVGFIYPGDSDTRYSPSFQGQVTISADKSISTAYLQWSSLKASDTAMYYCARGILRYFDWFLDYWGQGTLVTVSS
VL: B1 VL with F29I, A32G, L33S, A51V, D70E, P95L
notes: as for B1
B5: 223-5, recombinant human monoclonal IgG1 (antibody, V domains shown)
VH: EVQLVQSGAEVKKPGESLKISCKGSGYSLTSYWIGWVRQMPGKGLEWMGIIWPGDSDTRYSPSFQGQVTISADKSISTAYLQWSSLKASDTAMYYCARYVTVGAFDFWGQGTMVTVSS
VL: B1 VL with F29I, A43T, A51V, S67C, L78V, P95L, L96W, G100Q
notes: as for B1
B6: 857-2, recombinant human monoclonal IgG1 (antibody, V domains shown)
VH: EVQLVQSGEEVKKPGESLKISCKGSGYKFSSYWIGWVRQMPGKGLEWMGIIFPGDSDKRYSPSFQGQVTISADKSISTVYLQWSSLKASDTAMYYCARHITTHTYRGFFDFWGQGTLVTVSS
VL: AIQLTQSPSSLSASVGDRVTITCRASQDISSALAWYQQKPGKAPKLLIYDVSSLESGVPSRFSGSGSGTDFTLTISSLQPEDFATYYCQQFNGYPHRLTFGGGTKVEIK
notes: as for B1
B7: 221-5, recombinant human monoclonal IgG1 (antibody, V domains shown)
VH: EVQLVQSGAEVKKPGESLKISCKGSGYSFTSYWIGWVRQMPGKGLEWMGIIYPGDSDTRYSPSFQGQVTISADKSISTAYLQWSSLKASDTAMYYCARHLGIDYFFGMDVWGQGTTVTVSS
VL: EIVLTQSPATLSLSPGERATLSCRASQSVSSYLAWYQQKPGQAPRLLIYDASTRDTGIPARFSGSGSGTDFTLTISSLEPEDFAVYYCQHHSNWYTFGQGTKLEIK
notes: as for B1
B8: 221-20, recombinant human monoclonal IgG1 (antibody, V domains shown)
VH: EIQLVQSGTEVKKPGESLRISCRVSGYSFTNYWVAWVRQMPGKGLEWMGIIWPGDSDTRYSPSFQGQVTISADKSINTAYLQWSSLKASDTAVYYCARHLGIDYFFGLDVWGQGTTVTVSS
VL: B7 VL with T53S, D55A, H91L, K102N
notes: as for B1
B9: LA-2 IgG (antibody, V domains shown)
VH: QIQLVQSGPELKKPGETVKISCKASGYTFTDYSMYWVKQAPGKGLKRMGWINTETGEPTYADDFKGRFALSLDTSASTAYLHISNLKNEDTATYFCARGLDSWGQGTSVTVSS
VL: DIQMTQSPSSLSATLGGKVTITCKASQDINKYIAWYQHKPGKGPRLLIHYTSTLQPGNPSRFSGSGSGRDYSFSISNLEAEDIAIYYCLQYDNLQRTFGGGTKVEIK
notes: also called OspA ST 1-specific IgG mAb LA-2

The binders below were run against T1, Recombinant non-lipidated OspA serotype 2 (Borrelia afzelii (OspA ST2; strain not …, UniProt P0A3N7) (assay: microsphere immunoassay (MIA); recombinant non-lipidated OspA ST 1-7 coupled to Magplex-C microspheres, serial dilutions of mAb, 1 x PBS, 2% BSA, pH 7.4, room temperature 1 hr, PE anti-human IgG Fc). Conditions: both partners purified.
T1 construct: OspA serotype 2, non-lipidated; also called recombinant OspA ST2; ST 2; source: E. coli, purified; provided by Dr. Meredith Finn (Moderna)
T1 sequence (P0A3N7 17-273): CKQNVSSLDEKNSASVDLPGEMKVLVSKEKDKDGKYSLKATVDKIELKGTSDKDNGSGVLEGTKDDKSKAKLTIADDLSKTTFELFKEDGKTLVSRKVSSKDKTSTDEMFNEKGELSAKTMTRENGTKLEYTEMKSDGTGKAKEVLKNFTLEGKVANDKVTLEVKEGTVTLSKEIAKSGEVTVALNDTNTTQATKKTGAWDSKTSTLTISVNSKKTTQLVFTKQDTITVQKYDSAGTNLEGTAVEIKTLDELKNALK

Question: Does B1 bind?
Answer: binds

Question: Does B2 bind?
Answer: binds

Question: Does B3 bind?
Answer: binds

What follows are binders tested against T2, Recombinant non-lipidated OspA serotype 4 (Borrelia bavariensis (OspA ST4; strain …, UniProt Q6LBF1, strain) in the same assay as above. Conditions: both partners purified.
T2 construct: OspA serotype 4, non-lipidated; also called recombinant OspA ST4; ST 4; source: E. coli, purified; provided by Dr. Meredith Finn (Moderna)

Question: Does B1 bind?
Answer: binds

Question: Does B2 bind?
Answer: binds

Question: Does B3 bind?
Answer: binds

The binders below were run against T3, Recombinant OspAST1 (residues 18–273) from B. burgdorferi B31 (Borrelia burgdorferi B31 (OspA ST1), UniProt P0CL66) (assay: BLI; Octet RED96e; mAb captured on AHC sensors (0.4 µg/mL, 5 min), dipped into non-lipidated OspA 21.58 nM to 0.089 nM (10 min), dissociation 30 min; 0.1% BSA in PBS, 0.01% Tween20; global 1:1 model). Conditions: both partners purified.
T3 construct: source: tags removed with TEV protease; not shown: deca-histidine, N-terminal, cleaved; SUMO, N-terminal, cleaved
T3 sequence (P0CL66 18-273): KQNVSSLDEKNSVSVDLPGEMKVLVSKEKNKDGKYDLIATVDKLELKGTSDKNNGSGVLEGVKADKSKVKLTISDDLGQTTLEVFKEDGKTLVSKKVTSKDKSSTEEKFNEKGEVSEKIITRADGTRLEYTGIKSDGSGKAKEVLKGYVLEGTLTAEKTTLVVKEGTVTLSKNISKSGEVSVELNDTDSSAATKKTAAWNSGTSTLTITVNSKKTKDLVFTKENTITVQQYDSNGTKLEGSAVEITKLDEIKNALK

Question: For B4, which Kd is on record?
Answer: 0.66 nM

Question: For B5, which Kd is on record?
Answer: 0.17 nM

Question: For B1, which Kd is on record?
Answer: 0.35 nM

Question: For B6, which Kd is on record?
Answer: 0.3 nM

Question: How did the Kd turn out when B7 was run?
Answer: 0.52 nM

Question: For B8, which Kd is on record?
Answer: 0.37 nM

Question: How did the Kd turn out when B2 was run?
Answer: 1.7 nM

Question: B3 was tested. Which Kd did it give?
Answer: 0.48 nM

Question: With B9 as the binder, how does the Kd read?
Answer: 64 nM

Each binder was assayed against OspA ST3 (B. garinii PBr allele) on the B. burgdorferi HB19-R1 reporter strain (Borrelia garinii PBr (OspA ST3), UniProt B8F1J0, strain) (assay: flow cytometry on cells; live B. burgdorferi HB19-R1 reporter strains expressing OspA ST1-7, 10 µg/ml mAb, Alexa 647-labeled goat anti-human IgG). Conditions: one partner purified.

Question: How did the MFI turn out when B6 was run?
Answer: > 4000

Question: B7 was tested. Which MFI did it give?
Answer: > 4000

Question: With B8 as the binder, how does the MFI read?
Answer: > 4000

Question: Does B2 bind?
Answer: no binding

Question: Does B9 bind?
Answer: no binding (tested: 10 µg/ml)

Each binder was assayed against T4, OspA ST4 (B. bavariensis PBi allele) on the B. burgdorferi HB19-R1 reporter strain (Borrelia bavariensis PBi (OspA ST4), UniProt Q6LBF1, strain) in the same assay as above. Conditions: one partner purified.
T4 construct: OspA of B. bavariensis PBi (ST4); source: B. burgdorferi HB19-R1 (lacks ospA), reporter plasmid, native ospAB promoter of B31, on live cells

Question: Does B1 bind?
Answer: binds

Question: With B6 as the binder, how does the MFI read?
Answer: > 4000

Question: For B7, which MFI is on record?
Answer: > 4000

Question: For B8, which MFI is on record?
Answer: > 4000

Question: Does B2 bind?
Answer: binds

Question: Does B3 bind?
Answer: binds

Question: Does B9 bind?
Answer: no binding (tested: 10 µg/ml)

Each binder was assayed against T5, OspA ST1 (B. burgdorferi B31 allele) on the B. burgdorferi HB19-R1 reporter strain (Borrelia burgdorferi B31 (OspA ST1), UniProt P0CL66) in the same assay as above. Conditions: one partner purified.
T5 construct: OspA of B. burgdorferi B31 (ST1), lipoprotein on the cell surface; a second wild type ST1 plasmid with silent mutations was used beside the residue 107 mutants; same protein; also called HB19-R1 OspAST1 reporter; source: B. burgdorferi HB19-R1 (lacks ospA), reporter plasmid pGW217, native ospAB promoter, on live cells
T5 sequence (P0CL66 17-273): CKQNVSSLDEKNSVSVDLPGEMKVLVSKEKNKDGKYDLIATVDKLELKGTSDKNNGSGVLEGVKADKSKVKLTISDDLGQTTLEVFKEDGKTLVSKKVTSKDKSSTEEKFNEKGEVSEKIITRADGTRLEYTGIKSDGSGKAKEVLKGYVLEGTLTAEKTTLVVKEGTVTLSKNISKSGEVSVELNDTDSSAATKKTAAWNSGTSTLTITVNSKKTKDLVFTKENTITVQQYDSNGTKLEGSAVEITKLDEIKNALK

Question: With B6 as the binder, how does the MFI read?
Answer: > 4000

Question: Which MFI does the source give for B7 here?
Answer: > 4000

Question: B8 was tested. Which MFI did it give?
Answer: > 4000

Question: How did the MFI turn out when B9 was run?
Answer: > 7000

The binders below were run against T6, OspA ST2 (B. afzelii PKo allele) on the B. burgdorferi HB19-R1 reporter strain (Borrelia afzelii PKo (OspA ST2), UniProt P0A3N7) in the same assay as above. Conditions: one partner purified.
T6 construct: OspA of B. afzelii PKo (ST2); source: B. burgdorferi HB19-R1 (lacks ospA), reporter plasmid, native ospAB promoter of B31, on live cells
T6 sequence (P0A3N7 17-273): as the sequence (P0A3N7 17-273) above

Question: Does B1 bind?
Answer: binds

Question: Which MFI does the source give for B6 here?
Answer: > 4000

Question: Which MFI does the source give for B7 here?
Answer: > 4000

Question: Which MFI does the source give for B8 here?
Answer: > 4000

Question: Does B2 bind?
Answer: binds

Question: Does B3 bind?
Answer: binds

Question: Does B9 bind?
Answer: no binding (tested: 10 µg/ml)

The binders below were run against T7, Native OspA ST3 on B. garinii PBr (Borrelia garinii PBr (OspA ST3), UniProt B8F1J0, strain) (assay: flow cytometry on cells; live Borrelia primary isolates with native OspA ST1-7, 10 µg/ml mAb, Alexa 647-labeled goat anti-human IgG). Conditions: one partner purified.
T7 construct: native OspA (ST3) on the bacterial surface of the primary isolate; also called ST 3- B. garinii PBr; source: endogenous, on live B. garinii PBr

Question: Does B9 bind?
Answer: no binding (tested: 10 µg/ml)

Each binder was assayed against T8, Native OspA ST4 on B. bavariensis PBi (Borrelia bavariensis PBi (OspA ST4), UniProt Q6LBF1, strain) in the same assay as above. Conditions: one partner purified.
T8 construct: native OspA (ST4) on the bacterial surface of the primary isolate; also called ST 4- B. bavariensis PBi; source: endogenous, on live B. bavariensis PBi

Question: Does B9 bind?
Answer: no binding (tested: 10 µg/ml)

These binders were tested against T9, Native OspA ST2 on B. afzelii Pko (Borrelia afzelii PKo (OspA ST2), UniProt P0A3N7) in the same assay as above. Conditions: one partner purified.
T9 construct: native OspA (ST2) on the bacterial surface of the primary isolate; also called ST 2- B. afzelii Pko; source: endogenous, on live B. afzelii Pko
T9 sequence (P0A3N7 17-273): as above

Question: Does B9 bind?
Answer: no binding (tested: 10 µg/ml)
